Test [1] deals with T1, TCRvβ 6-5 expressed on cells (TCRvβ 6-5+ Jurkat cells; human T cells) (human).
T1 chain: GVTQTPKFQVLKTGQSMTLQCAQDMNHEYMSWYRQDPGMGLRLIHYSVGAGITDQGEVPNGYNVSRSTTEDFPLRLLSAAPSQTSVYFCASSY
Put plainly: FACS cell binding.

Test [2] has as its target T1, TCRvβ 6-5 expressed on cells (TCRvβ …). Put plainly: cell binding.
In test [3] the target is CD33 expressed on cells (MOLM-13, MV411, HL60) (human, UniProt P20138 18-364). Put plainly: cell binding.
CD33 expressed on cells (MOLM-13, MV411, HL60), sequence (P20138 18-364): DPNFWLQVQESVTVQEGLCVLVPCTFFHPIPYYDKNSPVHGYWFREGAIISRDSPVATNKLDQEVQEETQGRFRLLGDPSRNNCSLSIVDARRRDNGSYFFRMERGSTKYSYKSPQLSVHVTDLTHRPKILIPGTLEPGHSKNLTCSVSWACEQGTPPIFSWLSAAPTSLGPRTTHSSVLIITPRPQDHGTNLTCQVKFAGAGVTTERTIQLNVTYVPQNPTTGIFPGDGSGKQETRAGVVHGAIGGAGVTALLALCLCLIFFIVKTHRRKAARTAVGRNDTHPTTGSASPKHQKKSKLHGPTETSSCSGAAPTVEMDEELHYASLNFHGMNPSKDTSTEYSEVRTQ

B1: BJM0387 (bispecific antibody)
heavy: QVQLVQSGAEVKKPGSSVKVSCKASGYSFTTYYIHWVRQAPGQGLEWMGWFFPGSGNIKYNEKFKGRVTITADTSTSTAYMELSSLRSEDTAVYYCAGSYYSYDVLDYWGQGTTVTVSSGGGGSGGGGSGGGGSGGGGSDIQMTQSPSFLSASVGDRVTITCKASQNVGINVVWHQQKPGKAPKALIYSSSHRYSGVPSRFSGSGSGTEFTLTISSLQPEDFATYFCQQFKSYPLTFGQGTKLEIKGGGGSQVQLVQSGAEVKKPGSSVKVSCKASGYTFTDYNMHWVRQAPGQGLEWIGYIYPYNGGTGYNQKFKSKATITADESTNTAYMELSSLRSEDTAVYYCARGRPAMDYWGQGTLVTVSS
light: DIQMTQSPSSLSASVGDRVTITCRASESVDNYGISFMNWFQQKPGKAPKLLIYAASNQGSGVPSRFSGSGSGTDFTLTISSLQPDDFATYYCQQSKEVPWTFGQGTKVEIK
As to B1, the EC50 in test [1] came out at 0.908 nM; in test [2], 0.91 nM; in test [3] it was 0.13 nM.

The values are drawn from patent publication US20230102344A1 (published 2023).
